Measured values published in patent US20250019428A1 (Janssen / Centocor, published 2025).

Tests used:
recombinant human TNFα [1] = biological target: T1, recombinant human TNFα (human, UniProt P01375 77-233, 125I-labeled in the receptor inhibition assay); assay: cell-based or functional assay
recombinant human TNFα [2] = biological target: T1, recombinant human TNFα; assay: competition: 125I-TNFα binding to coated p55-sf2, hybridoma supernatants
Method: (§1) 50:1 of p55-sf2 at 0.5:g/ml in PBS was added to Optiplates to coat the wells during a one-hour incubation at 37° C. Serial dilutions of the eight TNV cell supernatants were prepared in 96-well round-bottom plates using PBS/0.1% BSA as diluent. […] The mixture was preincubated for one hour at RT. The coated Optiplates were washed to remove unbound p55-sf2 and 50:1 of the ¹²⁵I-TNFα/cell supernatant mixture was transferred to the Optiplates. After 2 hrs at RT, Optiplates were washed three times with PBS-Tween. […] of Microscint-20 was added and the cpm bound determined using the TopCount gamma counter.
A simple binding assay was done to determine whether the eight TNV mAbs contained in hybridoma cell supernatant were capable of blocking TNFα binding to receptor. The concentrations of the TNV mAbs in their respective cell supernatants were first determined by standard ELISA analysis for human IgG.

recombinant human TNFα [3] = biological target: T1, recombinant human TNFα; assay: competition radioligand assay: mAb in hybridoma supernatant preincubated with 5 ng/ml 125I-TNFα, then binding of 125I-TNFα to plate-coated p55-sf2 counted as cpm bound
Method: Varying amounts of hybridoma cell supernatants containing known amounts of TNV mAb were preincubated with a fixed concentration (5 ng/ml) of ¹²⁵I-labeled TNFα. […] The amount of TNFα that bound to the p55 receptor in the presence of the mAbs was determined after washing away the unbound material and counting using a gamma counter. […] Each sample was tested in duplicate. The results shown are representative of two independent experiments.
as §1
A simple binding assay was done to determine whether the eight TNV mAbs contained in hybridoma cell supernatant were capable of blocking TNFα binding to receptor.

human lymphotoxin = biological target: T2, human lymphotoxin (human, UniProt P01374 35-205, limits assumed); assay: not described
T2 sequence (looked up): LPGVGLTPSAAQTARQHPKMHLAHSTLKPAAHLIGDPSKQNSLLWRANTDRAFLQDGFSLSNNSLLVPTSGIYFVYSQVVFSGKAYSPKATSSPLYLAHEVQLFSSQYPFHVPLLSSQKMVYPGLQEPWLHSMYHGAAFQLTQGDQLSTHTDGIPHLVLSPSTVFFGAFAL

B1: GenTNV148.26.12 (antibody, human IgG1, kappa, V domains shown)
VH: QVQLVESGGGVVQPGRSLRLSCAASGFIFSSYAMHWVRQAPGNGLEWVAFMSYDGSNKKYADSVKGRFTISRDNPKNTLYLQMNSLRAEDTAVYYCARDRGIAAGGNYYYYGMDVWGQGTTVTVSS
VL: EIVLTQSPATLSLSPGERATLSCRASQSVYSYLAWYQQKPGQAPRLLIYDASNRATGIPARFSGSGSGTDFTLTISSLEPEDFAVYYCQQRSNWPPFTFGPGTKVDIKR
notes: Hybridoma-derived human IgG1 kappa; also called C420A
neutralizing TNFα bioactivity (recombinant human TNFα [1]): 4 fold | fold better at blocking TNF binding (against TNV118 and TNV14) (recombinant human TNFα [2]): ~4 fold | IC50 (read off the curve) (recombinant human TNFα [3]): ~3 ng/mL

B2: GenTNV86.14.34 (antibody, human IgG1, kappa, V domains shown)
VH: QVQLVESGGGVVQPGRSLRLSCAASGFIFSSYAMHWVRQAPGNGLEWVAFMSYDGSNKKYADSVKGRFTISRDNPKNTLYLQMNSLRAEDTAVYYCARDRGIAAGGNYYYYGMDVWGQGTTVTVSS
VL: EIVLTQSPATLSLSPGERATLSCRASQSVYSYLAWYQQKPGQAPRLLIYDASNRATGIPARFSGSGSGTDFTLTISSLEPEDFAVYYCQQRSNWPPFTFGPGTKVDIKR
notes: The constant region allotype is uncertain, as explained in the m8 note; also called C417A
fold better at blocking TNF binding (against TNV118 and TNV14) (recombinant human TNFα [2]): ~4 fold

B3: GenTNV15.28.11 (antibody, V domains shown)
VH: QVQLVESGGGVVQPGRSLRLSCAASGFTFSSYAMHWVRQAPGKGLEWVAFILYDGSNKKYADSVKGRFTISRDNSKNALYLQMNSLRAEDTAVYYCARDRGVSAGGNYYYYGMDVWGQGTTVTVSS
VL: EIVLTQSPATLSLSPGERATLSCRASQSVSSYLAWYQQKPGQAPRLLIYDASNRATGIPARFSGSGSGTDFTLTISSLEPEDFAVYYCQQRSNWPPFTFGPGTKVDIK
IC50 (read off the curve) (recombinant human TNFα [3]): ~3 ng/mL

B4: golimumab (antibody, human IgG1, kappa, V domains shown)
VH: QVQLVESGGGVVQPGRSLRLSCAASGFIFSSYAMHWVRQAPGNGLEWVAFMSYDGSNKKYADSVKGRFTISRDNSKNTLYLQMNSLRAEDTAVYYCARDRGIAAGGNYYYYGMDVWGQGTTVTVSS
VL: EIVLTQSPATLSLSPGERATLSCRASQSVYSYLAWYQQKPGQAPRLLIYDASNRATGIPARFSGSGSGTDFTLTISSLEPEDFAVYYCQQRSNWPPFTFGPGTKVDIKR
modifications: N-glycosylated on asparagine 306
notes: Fully human IgG1 kappa; The commercial material is expressed in Sp2/0 cells; also called SIMPONI
binding result (human lymphotoxin): no binding
